Measured values from PMC11633057, “Targeting MarA N‐terminal domain dynamics to prevent DNA binding”.
Residue numbers refer to the chain shown, from its start.

How the values were obtained:
[1] = molecular target: T1, MarA I13C/M47C I11C;M45C (Escherichia coli MG1655) (UniProt P0ACH5); assay: EMSA; conditions: EMSA: 20 mM Hepes pH 8, 100 mM MgCl2, 100 mM EDTA, 0.3 mg/mL BSA, +/- DTT, 0.8 uM MarA, DNA 15 nM (200 bp) or 200 nM (30 bp), 20 min 37 C, 8% native gel, SYBR …
T1 sequence: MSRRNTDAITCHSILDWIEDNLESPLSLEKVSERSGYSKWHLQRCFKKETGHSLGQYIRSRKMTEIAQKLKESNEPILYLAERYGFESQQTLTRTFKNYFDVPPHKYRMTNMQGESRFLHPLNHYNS

[2] = molecular target: T2, MarA I16C/M47C I14C;M45C (Escherichia coli MG1655) (UniProt P0ACH5); assay: EMSA; conditions: EMSA: 20 mM Hepes pH 8, 100 mM MgCl2, 100 mM EDTA, 0.3 mg/mL BSA, +/- DTT, 0.8 uM MarA, DNA 15 nM (200 bp) or 200 nM (30 bp), 20 min 37 C, 8% native gel, SYBR …
T2 sequence: T1 sequence with C11I, I14C

[3] = molecular target: T3, MarA S62C/L121C S60C;L119C (Escherichia coli MG1655) (UniProt P0ACH5); assay: EMSA; conditions: EMSA: 20 mM Hepes pH 8, 100 mM MgCl2, 100 mM EDTA, 0.3 mg/mL BSA, +/- DTT, 0.8 uM MarA, DNA 15 nM (200 bp) or 200 nM (30 bp), 20 min 37 C, 8% native gel, SYBR …
T3 sequence: T1 sequence with C11I, C45M, S60C, L119C

[4] = molecular target: T4, MarA WT (Escherichia coli MG1655) (UniProt P0ACH5); assay: EMSA; conditions: EMSA: 20 mM Hepes pH 8, 100 mM MgCl2, 100 mM EDTA, 0.3 mg/mL BSA, +/- DTT, 0.8 uM MarA, DNA 15 nM (200 bp) or 200 nM (30 bp), 20 min 37 C, 8% native gel, SYBR …
T4 sequence: T1 sequence with C11I, C45M

MarA WT = molecular target: T5, MarA WT (Escherichia coli MG1655, UniProt P0ACH5 1-127); assay: EMSA; no DTT; EMSA: 20 mM Hepes pH 8, 100 mM MgCl2, 100 mM EDTA, 0.3 mg/mL BSA, +/- DTT, 0.8 uM MarA, DNA 15 nM (200 bp) or 200 nM (30 bp), 20 min 37 C, 8% native gel, SYBR green; conditions: protein: recombinant; tags: N-terminal 6xHis (pET-15b); blunt
T5 sequence: T1 sequence with C11I, C45M

MarA I16C/M47C = molecular target: T6, MarA I16C/M47C (Escherichia coli MG1655, UniProt P0ACH5 1-127, I14C;M45C); assay: EMSA; 0.5 or 1 mM DTT; EMSA: 20 mM Hepes pH 8, 100 mM MgCl2, 100 mM EDTA, 0.3 mg/mL BSA, +/- DTT, 0.8 uM MarA, DNA 15 nM (200 bp) or 200 nM (30 bp), 20 min 37 C, 8% native gel, SYBR green; conditions: protein: recombinant; tags: N-terminal 6xHis (pET-15b); blunt
T6 sequence: T1 sequence with C11I, I14C

MarA I13C/M47C = molecular target: T7, MarA I13C/M47C (Escherichia coli MG1655, UniProt P0ACH5 1-127, I11C;M45C); assay: EMSA; no DTT (disulfide); EMSA: 20 mM Hepes pH 8, 100 mM MgCl2, 100 mM EDTA, 0.3 mg/mL BSA, +/- DTT, 0.8 uM MarA, DNA 15 nM (200 bp) or 200 nM (30 bp), 20 min 37 C, 8% native gel, SYBR green; conditions: protein: recombinant; tags: N-terminal 6xHis (pET-15b); blunt
T7 sequence: T1 sequence

GTTATCCTGTGTATCTGGGTTATCAGCGAAAAGTATAAGGGGTAAACAAGGATAAAGTGTCACTCTTTAGCTAGCCTTGCATCGCATTGAACAAAACTTGAACCGATTTAGCAAAACGTGGCATCGGTCAATTCATTCATTTGACTTATACTTGCCTGGGCAATATTATCCCCTGCAACTAATTACTTGCCAGGGCAAC (double strand) [marRAB 200-bp fragment]
binds: binding [1] | binding [2] | binding [3] | binding [4]

B1: marRAB 30-bp marbox (dsDNA)
DNA 1: GAACCGATTTAGCAAAACGTGGCATCGGTC
DNA 2: GACCGATGCCACGTTTTGCTAAATCGGTTC
binds: binding result (MarA WT) | binding result (MarA I16C/M47C) | binding result (MarA I13C/M47C)
